{"source": "patent EP2061494B1", "about": "(Universita' Degli Studi di Torino, dated 2012)", "binders": {"B1": {"name": "p140Cap (endogenous protein of MCF7 human breast carcinoma cell extracts) (other, UniProt Q9C0H9 1-1183, looked up)", "chain": "MGNAPSQDPERSSPPMLSADDAEYPREYRTLGGGGGGGSGGRRFSNVGLVHTSERRHTVIAAQSLEALSGLQKADADRKRDAFMDHLKSKYPQHALALRGQQDRMREQPNYWSFKTRSSRHTQGAQPGLADQAAKLSYASAESLETMSEAELPLGFSRMNRFRQSLPLSRSASQTKLRSPGVLFLQFGEETRRVHITHEVSSLDTLHALIAHMFPQKLTMGMLKSPNTAILIKDEARNVFYELEDVRDIQDRSIIKIYRKEPLYAAFPGSHLTNGDLRREMVYASRESSPTRRLNNLSPAPHLASGSPPPGLPSGLPSGLQSGSPSRSRLSYAGGRPPSYAGSPVHHAAERLGGAPAAQGVSPSPSAILERRDVKPDEDLASKAGGMVLVKGEGLYADPYGLLHEGRLSLAAAAGDPFAYPGAGGLYKRGSVRSLSTYSAAALQSDLEDSLYKAAGGGGPLYGDGYGFRLPPSSPQKLADVAAPPGGPPPPHSPYSGPPSRGSPVRQSFRKDSGSSSVFAESPGGKTRSAGSASTAGAPPSELFPGPGERSLVGFGPPVPAKDTETRERMEAMEKQIASLTGLVQSALLRGSEPETPSEKIEGSNGAATPSAPCGSGGRSSGATPVSGPPPPSASSTPAGQPTAVSRLQMQLHLRGLQNSASDLRGQLQQLRKLQLQNQESVRALLKRTEAELSMRVSEAARRQEDPLQRQRTLVEEERLRYLNDEELITQQLNDLEKSVEKIQRDVSHNHRLVPGPELEEKALVLKQLGETLTELKAHFPGLQSKMRVVLRVEVEAVKFLKEEPQRLDGLLKRCRGVTDTLAQIRRQVDEGVWPPPNNLLSQSPKKVTAETDFNKSVDFEMPPPSPPLNLHELSGPAEGASLTPKGGNPTKGLDTPGKRSVDKAVSVEAAERDWEEKRAALTQYSAKDINRLLEETQAELLKAIPDLDCASKAHPGPAPTPDHKPPKAPHGQKAAPRTEPSGRRGSDELTVPRYRTEKPSKSPPPPPPRRSFPSSHGLTTTRTGEVVVTSKKDSAFIKKAESEELEVQKPQVKLRRAVSEVARPASTPPIMASAIKDEDDEDRIIAELESGGGSVPPMKVVTPGASRLKAAQGQAGSPDKSKHGKQRAEYMRIQAQQQATKPSKEMSGSNETSSPVSEKPSASRTSIPVLTSFGARNSSISF"}}, "molecular_target": "Src kinase (endogenous protein of MCF7 cells) (human, UniProt P12931 2-536)", "assay": "cell-based or functional assay", "data": [{"binder": "B1", "values": [{"measurement": "Src activity induced by adhesion to fibronectin (in vitro kinase assay) after shRNA down-regulation of p140Cap", "value": 5, "unit": "fold"}]}]}
